Assays:
[1] = biological target: T1, PPARγ (Oryctolagus cuniculus, UniProt O19052); test: J3-TK-LUC PPRE-driven luciferase reporter in RK-13 cells; format: cell-based, rabbit
T1 construct: endogenous in cells; host or cells: RK-13 (rabbit kidney, ATCC)
T1 sequence (O19052 1-475): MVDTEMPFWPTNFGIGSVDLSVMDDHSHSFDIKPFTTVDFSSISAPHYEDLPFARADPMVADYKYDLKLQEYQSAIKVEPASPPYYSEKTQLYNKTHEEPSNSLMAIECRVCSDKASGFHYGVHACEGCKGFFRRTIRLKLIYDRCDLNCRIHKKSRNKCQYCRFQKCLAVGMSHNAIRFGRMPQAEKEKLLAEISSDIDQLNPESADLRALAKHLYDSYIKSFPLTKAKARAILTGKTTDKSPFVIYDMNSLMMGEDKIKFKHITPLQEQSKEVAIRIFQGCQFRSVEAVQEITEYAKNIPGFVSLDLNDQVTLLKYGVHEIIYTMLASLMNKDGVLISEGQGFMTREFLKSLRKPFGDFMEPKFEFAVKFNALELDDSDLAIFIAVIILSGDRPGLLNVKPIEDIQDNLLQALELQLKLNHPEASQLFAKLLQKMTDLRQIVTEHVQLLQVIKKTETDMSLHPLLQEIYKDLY
Description: Next we wanted to assess whether the above-mentioned changes in PPARγ expression were associated with changes in the capabilities of PPARγ to transactivate. A PPRE-driven luciferase reporter gene, containing three copies of the apo A-II J site (Vu-Dac et al., 1995), ie. J3-TK-LUC, was transfected into rabbit kidney-derived RK-13 cells and half of the cells were maintained in cholesterol-depleted medium whereas the other half was grown in the same medium supplemented with a mixture of cholesterol and 25-hydroxycholesterol.
Site-directed mutagenesis of the E-box in the PPARγ3 promoter was performed by splicing overlapping ends polymerase chain reaction (Ho, et al., Gene 77:51–59 (1989)), using the oligo pairs LF-106/LF-60 and LF-107/LF-68, to generate the plasmid pGL3γ3p800-E-boxmut. This changed the three bases underlined in the sequence 5′-[…]-3′ to 5′-[…]-3′ (SEQ ID NOS: 41 and 42, respectively. The J3-TK-LUC (Vu-Dac et al., 1995) and ACO-TK-LUC (Osumi et al., Biophys. Res. Commun. 175:866–871 (1991)) luciferase reporter vectors and the expression vectors encoding for ADD-1, a dominant negative form of ADD-1, and SREBP-1a (Tontonoz et al., Mol. Cell. Biol. 13:4753–4759 (1993)); Yokoyama et al., Cell 75:187–197 (1993)) were described before. […]

[2] = biological target: T2, ADD-1 (UniProt P56720-1 P56720-1:1-1110); test: cell_activity; pGL3gamma3p800 luciferase reporter, Hep G2; conditions: tags: expression vector, Hep G2 cells
T2 sequence: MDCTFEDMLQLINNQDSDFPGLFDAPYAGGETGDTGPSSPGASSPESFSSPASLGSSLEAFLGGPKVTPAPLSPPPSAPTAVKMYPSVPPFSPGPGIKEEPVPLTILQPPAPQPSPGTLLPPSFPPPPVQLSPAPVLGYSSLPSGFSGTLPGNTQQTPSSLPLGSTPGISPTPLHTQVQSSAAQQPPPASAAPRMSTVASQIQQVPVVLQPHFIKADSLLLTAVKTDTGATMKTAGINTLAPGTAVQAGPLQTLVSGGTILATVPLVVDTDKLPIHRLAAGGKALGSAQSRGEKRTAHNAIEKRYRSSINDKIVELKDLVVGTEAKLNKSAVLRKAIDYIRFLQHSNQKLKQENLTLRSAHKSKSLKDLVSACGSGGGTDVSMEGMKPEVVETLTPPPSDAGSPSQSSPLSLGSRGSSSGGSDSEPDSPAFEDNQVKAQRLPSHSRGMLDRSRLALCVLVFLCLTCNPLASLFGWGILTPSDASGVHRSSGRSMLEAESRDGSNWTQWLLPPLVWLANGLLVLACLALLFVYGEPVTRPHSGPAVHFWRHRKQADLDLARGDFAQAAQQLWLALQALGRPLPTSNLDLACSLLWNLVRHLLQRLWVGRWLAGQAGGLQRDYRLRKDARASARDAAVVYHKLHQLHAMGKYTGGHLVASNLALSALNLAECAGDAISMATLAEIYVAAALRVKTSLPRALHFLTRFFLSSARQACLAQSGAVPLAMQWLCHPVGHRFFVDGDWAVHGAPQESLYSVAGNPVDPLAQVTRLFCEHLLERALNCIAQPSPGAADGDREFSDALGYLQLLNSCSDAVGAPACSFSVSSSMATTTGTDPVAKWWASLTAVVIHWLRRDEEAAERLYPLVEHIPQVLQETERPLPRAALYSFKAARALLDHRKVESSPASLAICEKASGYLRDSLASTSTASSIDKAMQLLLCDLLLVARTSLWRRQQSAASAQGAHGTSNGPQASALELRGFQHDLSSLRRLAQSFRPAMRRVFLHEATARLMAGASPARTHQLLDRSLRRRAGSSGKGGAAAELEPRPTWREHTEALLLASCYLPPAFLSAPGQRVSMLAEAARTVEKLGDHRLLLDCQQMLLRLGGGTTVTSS
Description: To assess whether ADD-1 regulates the expression of the hPPARγ3 mRNA, we cotransfected either an expression plasmid coding for ADD-1 together with the pGL3γ3p800 luciferase reporter vector.

[3] = biological target: T3, hPPARγ2, in vitro transcribed/translated protein (human, UniProt P37231 1-505); test: EMSA with in vitro translated proteins on the apoA-II J site PPRE oligonucleotide; heterodimer complex on DNA
T3 construct: PPARγ2 isoform, with the additional N-terminal amino acids encoded by exon B; also called human PPARγ2
T3 sequence (looked up): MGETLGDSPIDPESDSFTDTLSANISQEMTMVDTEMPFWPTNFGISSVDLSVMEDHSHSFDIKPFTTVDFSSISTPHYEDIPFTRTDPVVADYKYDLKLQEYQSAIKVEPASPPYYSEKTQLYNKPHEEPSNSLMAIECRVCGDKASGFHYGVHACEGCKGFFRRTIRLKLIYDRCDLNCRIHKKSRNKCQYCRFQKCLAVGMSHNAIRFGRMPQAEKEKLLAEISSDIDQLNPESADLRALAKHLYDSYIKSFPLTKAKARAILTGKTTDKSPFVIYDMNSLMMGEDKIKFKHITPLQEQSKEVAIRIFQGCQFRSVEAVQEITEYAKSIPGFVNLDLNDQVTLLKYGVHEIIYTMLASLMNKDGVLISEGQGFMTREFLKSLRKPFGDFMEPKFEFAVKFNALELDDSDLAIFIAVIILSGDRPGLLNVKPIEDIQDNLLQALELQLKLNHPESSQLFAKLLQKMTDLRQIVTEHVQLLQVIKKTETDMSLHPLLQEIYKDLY
Description: To analyze whether PPARγ could bind to a PPRE, classically composed of direct repeats spaced by one intervening nucleotide (DR-1), EMSA was performed using in vitro transcribed/translated PPARγ2 protein. An oligonucleotide containing a high affinity PPRE, previously identified in the apoA-II promoter J site, was used in EMSA (29).
7. Electrophoretic Mobility Shift Assays (EMSA) and Oligonucleotide Sequences haPPARγ (39), hPPARγ2, and mRXRα (40) proteins were synthesized in vitro in rabbit reticulocyte lysate (Promega). Molecular weights and quality of the in vitro translated proteins were verified by SDS-PAGE. PPAR (2 μl) and/or RXR (2 μl) were incubated for 15 min on ice in a total volume of 20 μl with 1-ng probe, 2.5 μg of poly(dI-dC) and 1 μg of herring sperm DNA in binding buffer (10 mM Tris-HCl pH 7.9, 40 mMKCl, 10% glycerol, 0.05% Nonidet P-40, and 1 mM dithiothreitol). For competition experiments, increasing amounts (from 10- to 200-fold molar excess) of cold oligonucleotide (AII-J-PPRE, 5'-[…]-3' (41) SEQ ID NO: 24; acyl-CoA oxidase (ACO)-PPRE, 5'-[…]-3' (42) SEQ ID NO: 25; or LPL-PPRE, 5'-[…]-3 (23) SEQ ID NO: 26; were included just before adding T4-PNK end-labeled AII-J-PPRE oligonucleotide. DNA-protein complexes were separated by electrophoresis on a 4% polyacrylamide gel in 0.25×TBE buffer at 4° C. (43).

[4] = system: PPARγ mRNA; test: RNase protection assay of PPARγ mRNA in retrovirally infected 3T3-L1 cells; format: cell-based, mouse; conditions: 3T3-L1 preadipocytes and adipocytes; retroviral ectopic expression
Description: To study the effects of ADD-1 on PPARγ expression in more detail, either an empty retroviral vector pBabe or the same vector encoding for full length ADD-1 or the superactive ADD-1-403 form were introduced into 3T3-L1 cells via retroviral infection. […] Infected cells were then cultured to confluence and consecutively treated with differentiation medium. Total RNA was isolated at confluence (preadipocytes) and at day 6 after confluence (adipocytes) from the cells expressing either the empty pBabe vector or the same vector encoding for ADD-1 or ADD-1-403, a truncated form of ADD-1, equivalent to the proteolytically activated protein, which lacks the membrane anchoring domain. […] The effect of retroviral infection was more pronounced in 3T3-L1 adipocytes relative to preadipocytes.
Control cells received vehicle only.
The absolute mRNA concentration of the differentially spliced PPARγ variants was measured by RNase protection assay exactly as described (Lemberger et al., J. Biol. Chem. 271:1764–1769 (1995)). The full lenght PPARγ2 coding region plus 33 bp of the 5′ UTR was amplified from human adipose tissue RNA by RT-PCR with the primer pair LF-3/LF-36 and was inserted in the inverted orientation (3′ to 5′ in front of the T7 promoter) into the EcoRI site of the expression vector pSG5 (Stratagene, La Jolla, Calif.). […]

Molecule: CN(CCOc1ccc(CC2SC(=O)NC2=O)cc1)c1ccccn1 (centres unmarked) [BRL 49,653]
- J3-TK-LUC reporter activation under cholesterol depletion versus supplemented medium ([1]; cholesterol-depleted medium): activated to a significantly higher level
- promoter activity of J3-TK-LUC reporter ([1]; increasing amounts of ligand, cholesterol-depleted or supplemented medium): dose-dependent activation

B1: PPARgamma3 E-box (LF-102; core printed) (dsDNA)
DNA 1: ATTCATGTGACAT
DNA 2: ATGTCACATGAAT
- activity [2]: ≥ 4 fold

B2: mRXRα, in vitro translated protein (receptor, mouse, UniProt P28700 1-467, looked up)
chain: MDTKHFLPLDFSTQVNSSSLNSPTGRGSMAVPSLHPSLGPGIGSPLGSPGQLHSPISTLSSPINGMGPPFSVISSPMGPHSMSVPTTPTLGFGTGSPQLNSPMNPVSSTEDIKPPLGLNGVLKVPAHPSGNMASFTKHICAICGDRSSGKHYGVYSCEGCKGFFKRTVRKDLTYTCRDNKDCLIDKRQRNRCQYCRYQKCLAMGMKREAVQEERQRGKDRNENEVESTSSANEDMPVEKILEAELAVEPKTETYVEANMGLNPSSPNDPVTNICQAADKQLFTLVEWAKRIPHFSELPLDDQVILLRAGWNELLIASFSHRSIAVKDGILLATGLHVHRNSAHSAGVGAIFDRVLTELVSKMRDMQMDKTELGCLRAIVLFNPDSKGLSNPAEVEALREKVYASLEAYCKHKYPEQPGRFAKLLLRLPALRSIGLKCLEHLFFFKLIGDTPIDTFLMEMLEAPHQAT
notes: also called mouse retinoid X receptor alpha
- binding result [3]: binds

B3: ADD-1-403: truncated superactive form of ADD-1 lacking the membrane anchoring domain, equivalent to the proteolytically activated protein (protein, UniProt P56720 1-403, looked up, fragment)
chain: MDELPFGEAALEQALAEVCEMDAALLTDIEDMLQLINNQDSDFPGLFDAPYAGGETGDTGPSSPGASSPESFSSPASLGSSLEAFLGGPKVTPAPLSPPPSAPTAVKMYPSVPPFSPGPGIKEEPVPLTILQPPAPQPSPGTLLPPSFPPPPVQLSPAPVLGYSSLPSGFSGTLPGNTQQTPSSLPLGSTPGISPTPLHTQVQSSAAQQPPPASAAPRMSTVASQIQQVPVVLQPHFIKADSLLLTAVKTDTGATMKTAGINTLAPGTAVQAGPLQTLVSGGTILATVPLVVDTDKLPIHRLAAGGKALGSAQSRGEKRTAHNAIEKRYRSSINDKIVELKDLVVGTEAKLNKSAVLRKAIDYIRFLQHSNQKLKQENLTLRSAHKSKSLKDLVSACGSGGGT
- expression of PPARγ mRNA [4]: significantly more active
